Sequences and labels used below:
T1: 6×His tagged C57BL/6 mouse SIRPα ECD recombinant protein (mouse (C57BL/6), UniProt P97797 32-373)
T1 construct: extracellular domain; bought; also called mSIRPα (C57BL/6); mouse SIRPα (C57BL/6) ECD
T1 sequence: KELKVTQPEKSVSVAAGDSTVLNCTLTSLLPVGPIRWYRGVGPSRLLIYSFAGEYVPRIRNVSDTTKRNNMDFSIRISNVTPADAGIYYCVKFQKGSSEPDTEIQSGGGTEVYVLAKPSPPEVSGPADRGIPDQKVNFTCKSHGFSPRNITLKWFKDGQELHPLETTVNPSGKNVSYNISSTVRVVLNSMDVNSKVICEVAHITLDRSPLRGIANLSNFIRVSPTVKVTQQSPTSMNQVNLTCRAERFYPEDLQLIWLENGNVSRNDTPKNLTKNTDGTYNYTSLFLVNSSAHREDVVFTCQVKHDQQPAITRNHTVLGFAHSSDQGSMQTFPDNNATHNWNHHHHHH

T2: full length C57BL/6 mouse SIRPα stably expressed on CHOK1 cells (mouse (C57BL/6), UniProt P97797 32-513)
T2 construct: whole, on cells; also called CHOK1-C57BL/6 mouse SIRPα-2.22 cells
T2 sequence (looked up): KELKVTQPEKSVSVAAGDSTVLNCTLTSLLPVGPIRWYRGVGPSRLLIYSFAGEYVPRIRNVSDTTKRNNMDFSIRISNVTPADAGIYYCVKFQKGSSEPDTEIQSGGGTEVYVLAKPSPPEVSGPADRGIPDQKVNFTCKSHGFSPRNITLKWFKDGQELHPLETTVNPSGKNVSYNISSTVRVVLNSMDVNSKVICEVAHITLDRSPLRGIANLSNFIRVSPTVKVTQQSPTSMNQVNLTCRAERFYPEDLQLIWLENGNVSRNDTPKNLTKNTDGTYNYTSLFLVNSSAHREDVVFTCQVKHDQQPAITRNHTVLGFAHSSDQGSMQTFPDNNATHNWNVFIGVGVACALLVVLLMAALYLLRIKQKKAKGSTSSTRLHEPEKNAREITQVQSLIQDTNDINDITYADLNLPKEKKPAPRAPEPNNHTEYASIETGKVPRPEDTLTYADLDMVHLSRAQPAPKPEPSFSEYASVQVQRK

T3: full length cyno SIRPα stably expressed on CHOK1 cells (cynomolgus monkey, UniProt A0A2K5VYQ9 31-507)
T3 construct: whole, on cells; also called CHOK1-cyno SIRPα-2A2 cells; CHOK1-cyno SIRPα
T3 sequence: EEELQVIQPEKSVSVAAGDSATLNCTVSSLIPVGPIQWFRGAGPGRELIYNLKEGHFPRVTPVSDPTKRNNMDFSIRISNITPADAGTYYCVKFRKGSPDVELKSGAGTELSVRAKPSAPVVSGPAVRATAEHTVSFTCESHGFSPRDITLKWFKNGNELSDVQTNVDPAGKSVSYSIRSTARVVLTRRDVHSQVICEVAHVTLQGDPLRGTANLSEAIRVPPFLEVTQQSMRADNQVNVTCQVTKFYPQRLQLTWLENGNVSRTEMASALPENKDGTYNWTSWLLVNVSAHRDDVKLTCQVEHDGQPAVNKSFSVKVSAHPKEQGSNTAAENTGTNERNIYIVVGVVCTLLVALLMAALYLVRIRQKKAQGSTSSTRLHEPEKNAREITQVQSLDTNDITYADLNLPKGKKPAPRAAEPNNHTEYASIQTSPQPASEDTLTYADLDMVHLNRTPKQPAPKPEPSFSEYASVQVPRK

B1: humanized antibody hu035.03 (antibody, V domains shown)
VH: QIQLVQSGSELKKPGASVKVSCRARGYTLTDYAMNWVRQAPGQGLEWMGFINTYTGEPTYAQGFKGRFVFSLDTSVSTAYLQIGSLKAEDTAVYYCARTRGYYDFDGGAFDYWGQGTLVTVSS
VL: DIQMTQSPSSLSASVGDRVTITCRASQNVGTHLAWYQQKPGKSPKALIFSASYRYIGVPSRFSGSGSGTDFTLTISSLQPEDFATYYCQQYNTYPLTFGQGTKLEIK
B2: humanized antibody hu035.13 (antibody, V domains shown)
VH: B1 VH with R23K, R25S, T28S, L29I, D31N, G84S
VL: DIQMTQSPSRLGASVGDRVTITCRASQNVGTHLAWYQQKPGKAPKSLIYSAIYRYIGVPSRFSGSGSGTDFTLTISSLQPEDFATYFCQQYNTYPLTFDQGTKLEIKR
B3: humanized antibody hu035.14 (antibody, V domains shown)
VH: B1 VH with R23K, R25S, T28S, L29I, G84S
VL: B1 VL with S52I, S77N
B4: humanized antibody hu035.09 (antibody, V domains shown)
VH: B1 VH with R25G
VL: B1 VL with S43A, A46S, F49Y, S52I
B5: humanized antibody hu035.10 (antibody, V domains shown)
VH: B1 VH
VL: B1 VL with S52I, S77N

Numbering of substitutions follows the chain as printed.

As usually defined, the EC50 is the midpoint of the concentration-response curve. For orientation: Kd means a measure of binding affinity in units of concentration. Usually koff stands for the first-order rate constant of dissociation. Broadly, the kon is the second-order rate constant of association. A word on the IC50: it is the midpoint of a concentration-inhibition curve. As a reminder, the EC50 (read off the curve) is the concentration at which the effect is half-maximal.

T9 sequence (chain, as listed by the source): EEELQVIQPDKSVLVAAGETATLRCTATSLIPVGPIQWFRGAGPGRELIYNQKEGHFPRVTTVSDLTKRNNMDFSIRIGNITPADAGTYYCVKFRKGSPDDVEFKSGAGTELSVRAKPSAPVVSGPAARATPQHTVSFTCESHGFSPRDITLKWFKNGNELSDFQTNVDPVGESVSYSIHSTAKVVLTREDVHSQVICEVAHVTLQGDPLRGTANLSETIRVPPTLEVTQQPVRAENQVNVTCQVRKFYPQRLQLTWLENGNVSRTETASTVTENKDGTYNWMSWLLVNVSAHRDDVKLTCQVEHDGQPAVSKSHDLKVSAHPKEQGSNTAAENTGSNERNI
T12 sequence (P78324 31-373): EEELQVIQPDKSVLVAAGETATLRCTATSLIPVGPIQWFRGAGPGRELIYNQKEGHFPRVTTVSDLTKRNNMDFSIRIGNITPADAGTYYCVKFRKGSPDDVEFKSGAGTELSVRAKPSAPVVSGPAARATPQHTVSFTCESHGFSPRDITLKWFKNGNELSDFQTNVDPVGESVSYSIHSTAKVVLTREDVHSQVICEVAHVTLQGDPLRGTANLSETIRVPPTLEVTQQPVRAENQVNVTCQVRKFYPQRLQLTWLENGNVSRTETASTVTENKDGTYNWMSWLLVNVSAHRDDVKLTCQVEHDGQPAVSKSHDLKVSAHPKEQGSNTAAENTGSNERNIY

The target of one assay is T4, Fc tagged human SIRPβ ECD recombinant protein (human, UniProt O00241 30-371).
T4 construct: range 1-371; cloned range includes the signal peptide; also called hSIRPβ; not shown: human IgG Fc region (hFc) of the pCPC vector
T4 sequence (O00241 30-371 limits assumed, form in doubt): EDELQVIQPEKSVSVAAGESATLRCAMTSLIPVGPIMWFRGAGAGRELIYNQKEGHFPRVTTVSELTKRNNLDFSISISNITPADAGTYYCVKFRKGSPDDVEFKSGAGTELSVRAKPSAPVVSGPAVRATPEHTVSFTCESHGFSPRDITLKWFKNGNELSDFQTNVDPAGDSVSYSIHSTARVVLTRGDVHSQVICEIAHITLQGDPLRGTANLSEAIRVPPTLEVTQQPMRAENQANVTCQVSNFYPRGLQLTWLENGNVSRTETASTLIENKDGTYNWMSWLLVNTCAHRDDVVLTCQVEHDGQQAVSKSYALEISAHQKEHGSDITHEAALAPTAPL
Briefly: ELISA. In general terms: In an ELISA, binding on a coated surface is turned into a signal by an enzyme label.
Turning to B1, the EC50 amounted to 0.17 nM.
On the same count and under the same terms, to B2 belongs 0.18 nM; to B3, 0.23 nM.
Take B4: the concentration for a half-maximal effect (EC50) is 0.23 nM.
For B5, the 50% effective concentration (EC50) was found to be 0.19 nM.

A further assay deals with T5, 6×His tagged human SIRPα v8 ECD recombinant protein (human).
T5 construct: extracellular domain; bought; also called hSIRPα V8
Briefly: ELISA.
For the molecule B1, the EC50 was 0.23 nM.
Turning to B2, the EC50 came out at 0.16 nM.
Same read-out and setting: to B3 belongs 0.28 nM; to B4, 0.21 nM; to B5, 0.18 nM.

The target in the next assay is T6, Fc tagged human SIRPα v1 ECD recombinant protein (human, UniProt P78324 31-370).
T6 construct: range 1-370; cloned range M1-R370 includes the signal peptide; also called hSIRPα V1; not shown: human IgG Fc region (hFc) of the pCPC vector
T6 sequence (P78324 31-370 limits assumed): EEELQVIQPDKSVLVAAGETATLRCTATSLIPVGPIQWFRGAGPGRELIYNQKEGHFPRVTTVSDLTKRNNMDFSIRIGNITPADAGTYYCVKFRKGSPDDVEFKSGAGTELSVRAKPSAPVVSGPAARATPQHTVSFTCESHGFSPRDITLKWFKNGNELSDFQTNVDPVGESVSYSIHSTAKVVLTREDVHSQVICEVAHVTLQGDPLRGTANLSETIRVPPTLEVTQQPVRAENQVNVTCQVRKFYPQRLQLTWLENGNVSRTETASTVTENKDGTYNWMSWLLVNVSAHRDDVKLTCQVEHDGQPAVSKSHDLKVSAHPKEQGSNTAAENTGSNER
Briefly: ELISA.
Consider B1, for which the EC50 amounted to 0.13 nM.
For the molecule B2, the EC50 worked out at 0.14 nM.
With B3, the EC50 amounted to 0.15 nM.
Consider B4, for which the EC50 is 0.13 nM.
The same measure, in the same setting: next, B5: 0.19 nM.

The next assay deals with T7, Fc tagged human SIRPγ ECD recombinant protein (human, UniProt Q9P1W8 29-360).
T7 construct: range 1-360; cloned range includes the signal peptide; also called hSIRPγ; not shown: human IgG Fc region (hFc) of the pCPC vector
T7 sequence (Q9P1W8 29-360 limits assumed, form in doubt): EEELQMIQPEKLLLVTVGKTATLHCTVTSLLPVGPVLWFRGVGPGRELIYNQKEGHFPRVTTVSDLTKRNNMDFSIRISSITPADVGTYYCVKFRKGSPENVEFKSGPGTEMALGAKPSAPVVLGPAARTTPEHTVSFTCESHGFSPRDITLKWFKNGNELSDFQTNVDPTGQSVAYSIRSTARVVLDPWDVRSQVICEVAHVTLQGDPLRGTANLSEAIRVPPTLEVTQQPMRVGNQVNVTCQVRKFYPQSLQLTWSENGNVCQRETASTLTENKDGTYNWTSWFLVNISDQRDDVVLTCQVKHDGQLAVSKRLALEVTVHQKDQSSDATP
Briefly: ELISA.
With B1, the EC50 is 6.78 nM.
For the molecule B2, the concentration for a half-maximal effect (EC50) was 0.67 nM.
As to B3, the EC50 stood at 0.52 nM.
In the case of B4, the EC50 came out at 1.05 nM.
Same read-out and setting: next, B5: 0.34 nM.

For a further assay, the target named is T8, Fc tagged human SIRPα v2 ECD recombinant protein (human).
T8 construct: range 1-369; cloned range M1-R369 includes the signal peptide; also called hSIRPα V2
Briefly: ELISA.
Consider B1, for which the EC50 worked out at 0.11 nM.
Consider B2, for which the EC50 worked out at 0.17 nM.
In the case of B3, the half-maximal effective concentration (EC50) came to 0.16 nM.
Still for that read-out and setting: to B4 belongs 0.19 nM.
For the molecule B5, the EC50 came to 0.16 nM.

A further assay has as its target T1, 6×His tagged C57BL/6 mouse SIRPα ECD …. Briefly: SPR (Biacore), antibody captured. As to the method:
(§1) Anti-SIRPα chimeric antibodies were characterized for binding affinity against human SIRPα v1, human SIRPα v2 and C57BL/6 mouse SIRPα using Biacore (GE). Briefly the antibodies to be tested were captured to CM5 chip (GE) using Human Antibody Capture Kit (GE). The antigens of 6×His tagged human SIRPα v1, human SIRPα v2 and C57BL/6 mouse SIRPα ECD recombinant proteins were serially diluted for multiple doses and injected at 30 μl/min for 180 s. Buffer flow was maintained for dissociation of 400 s. 3 M MgCl₂ was used for chip regeneration. The association and dissociation curves were fit with 1:1 binding model, and the Ka/Kd/KD values for each antibody were calculated.
(SPR reads the build-up and loss of mass on a sensor chip optically.)
As to B2, the dissociation constant Kd is 45.8 nM, the koff worked out at 0.00259 s⁻¹ and the kon came out at 56600 M⁻¹ s⁻¹.
Taken in the same sequence, the figures for B5 were 33.8 nM, 0.00152 s⁻¹ and 45000 M⁻¹ s⁻¹.

Another assay concerns the target T9, 6×His tagged human SIRPα v2 ECD recombinant protein (human). The assay can be described thus: SPR (Biacore), antibody captured. As to the method:
as §1
With B2, the Kd is 3.2 nM, the koff stood at 0.000189 s⁻¹ and the kon was found to be 59200 M⁻¹ s⁻¹.
Taken in the same sequence, the figures for B5 were 1.64 nM, 0.00017 s⁻¹ and 104000 M⁻¹ s⁻¹.

For another assay, the target named is T10, 6×His tagged human SIRPα v1 ECD recombinant protein (human, UniProt P78324 31-373).
T10 construct: extracellular domain; bought; also called hSIRPα V1 (SPR antigen)
T10 sequence (P78324 other isoform, or with tags, fused parts or gaps): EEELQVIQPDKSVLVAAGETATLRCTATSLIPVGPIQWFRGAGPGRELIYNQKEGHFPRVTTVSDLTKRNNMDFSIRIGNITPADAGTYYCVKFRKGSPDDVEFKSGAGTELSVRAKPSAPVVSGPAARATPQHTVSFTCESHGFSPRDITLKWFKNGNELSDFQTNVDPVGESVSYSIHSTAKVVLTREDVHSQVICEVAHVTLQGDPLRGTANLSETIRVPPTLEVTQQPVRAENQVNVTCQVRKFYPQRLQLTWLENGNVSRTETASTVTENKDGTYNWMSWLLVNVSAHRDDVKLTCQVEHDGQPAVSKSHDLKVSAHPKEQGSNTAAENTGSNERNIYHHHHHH
The assay can be described thus: SPR (Biacore), antibody captured. Here is the method: as §1
On to B1, for which the Kd came to 3.2 nM, the koff is 0.000189 s⁻¹ and the kon worked out at 59200 M⁻¹ s⁻¹.
Taken in the same sequence, the figures for B2 were 0.61 nM, 0.000117 s⁻¹ and 192000 M⁻¹ s⁻¹.
For the molecule B3, the Kd was found to be 1.44 nM, the koff is 0.000129 s⁻¹ and the kon is 89200 M⁻¹ s⁻¹.
On the same counts, the results for B4 are 2.17 nM, 0.000191 s⁻¹ and 88300 M⁻¹ s⁻¹.
For the molecule B5, the Kd worked out at 3.82 nM, the koff came out at 0.000238 s⁻¹ and the kon came out at 62100 M⁻¹ s⁻¹.

Another assay concerns the target T2, full length C57BL/6 mouse SIRPα stably …. Briefly: FACS on CHOK1 cells. Here is the method: (§2) Species cross reactivity of the purified hybridoma antibodies against human, cyno and mouse SIRPα was determined by FACS assay using CHOK1-human SIRPα v1-1B4 cells, CHOK1-cyno SIRPα-2A2 cells, and CHOK1-C57BL/6 mouse SIRPα-2.22 cells, which stably expressing SIRPα protein. Briefly the antibodies were incubated with 2×10⁵ target cells at 4° C. for 1 hour. After washing, fluorescence labeled anti-mouse or anti-human IgG 2nd antibody (Life Technologies) was added and incubated at 4° C. for 1 hour. Geometric median fluorescence intensity was detected and EC₅₀ was calculated. In particular, it is noted, in contrast to the other antibodies tested in the same experiment, 060 cannot bind with cyno SIRPα and 035 has cross reactivity against C57BL/6 mouse SIRPα.
As to B1, the “MFI at 2 ug/ml” value worked out at 626 MFI.
B2: the “MFI at 2 ug/ml” value was 876 MFI.
As for B3, the “MFI at 2 ug/ml” value is 1050 MFI.
Same read-out and setting: next, B4: 950 MFI; B5: 1110 MFI.

The target of the next assay is T3, full length cyno SIRPα stably expressed …. Briefly: FACS on CHOK1 cells. Here is the method:
as §2
In turn, B1 had an EC50 of 0.3 nM.
The same measure, in the same setting: to B2 belongs 0.26 nM.
In turn, B3 returned an EC50 of 0.36 nM.
On the same count and under the same terms, next, B4: 0.36 nM; B5: 0.33 nM.

In a further assay the target is T11, full length human SIRPα v1 stably expressed on CHOK1 cells (human, UniProt P78324 31-504).
T11 construct: whole, on cells; also called CHOK1-human SIRPα v1-1B4 cells; CHOK1-human SIRPα v1
The assay can be described thus: FACS on CHOK1 cells. As to the method:
as §2
In the case of B1, the half-maximal effective concentration (EC50) amounted to 1.46 nM.
For the molecule B2, the midpoint of the response, the EC50, lay at 1.03 nM.
Still for that read-out and setting: next, B3: 1.31 nM.
B4: the EC50 amounted to 1.45 nM.
Still for that read-out and setting: to B5 belongs 1.44 nM.

Another assay addresses T12, biotin labeled soluble human SIRPα v1 ECD recombinant protein (human, UniProt P78324 31-373, biotin labeled).
T12 construct: extracellular domain
The assay can be described thus: competitive ELISA, hSIRPα/CD47 blocking.
As for B1, the IC50 worked out at 1.43 nM.
For the molecule B2, the IC50 is 1.33 nM.
For B3, the 50% inhibitory concentration (IC50) came to 1.46 nM.
Turning to B4, the IC50 was 1.36 nM.
In the case of B5, the IC50 turned out to be 1.49 nM.

For the next assay, the target named is T1, 6×His tagged C57BL/6 mouse SIRPα ECD …. Briefly: ELISA on coated mouse SIRPα (C57BL/6) ECD [Continued) F].
As to B1, the “EC50 (read off the curve)” value is approximately 0.09 µg/mL.
The same measure, in the same setting: to B3 belongs approximately 0.04 µg/mL; to B4, approximately 0.04 µg/mL; to B5, approximately 0.04 µg/mL.

For a further assay the target is unchanged. Briefly: SPR (Biacore).
As to B2, the Kd is 45.8 nM.
With B5, the Kd was determined as 33.8 nM.

The next assay concerns the target T9, 6×His tagged human SIRPα v2 ECD …. The assay can be described thus: SPR (Biacore).
For B2, the Kd came to 1.24 nM.
As for B5, the Kd was found to be 2.15 nM.

For another assay, the target named is T10, 6×His tagged human SIRPα v1 ECD …. The assay can be described thus: SPR (Biacore).
On to B1, for which the Kd is 3.2 nM.
In the case of B2, the equilibrium dissociation constant (Kd) was found to be 0.61 nM.
On the same count and under the same terms, next, B3: 1.44 nM; B4: 2.17 nM; B5: 3.82 nM.

The record behind these values is US20210347908A1 (ELPISCIENCE SUZHOU BIOPHARMA, published 2021).
